The record followed here is paper PMC5679641 (PLoS Pathogens, 2017).

In experiment [1] the target is ABIN2, Nluc- or YFP-tagged (BRET) (human) (UniProt Q8NFZ5). Nature of the experiment: FRET or BRET. In general terms: BRET reads energy transfer from a luciferase to a nearby fluorophore.
The target in experiment [2] is RelAp43, Nluc- or YFP-tagged (BRET). Nature of the experiment: FRET or BRET.
The target in experiment [3] is TPL2, Nluc- or YFP-tagged (BRET) (human) (UniProt P41279). Nature of the experiment: FRET or BRET.
The target in experiment [4] is T1, p105, Nluc- or YFP-tagged (BRET) (UniProt P19838 1-968).
T1 construct: also called NFκB1(p105/p50)
T1 sequence (looked up): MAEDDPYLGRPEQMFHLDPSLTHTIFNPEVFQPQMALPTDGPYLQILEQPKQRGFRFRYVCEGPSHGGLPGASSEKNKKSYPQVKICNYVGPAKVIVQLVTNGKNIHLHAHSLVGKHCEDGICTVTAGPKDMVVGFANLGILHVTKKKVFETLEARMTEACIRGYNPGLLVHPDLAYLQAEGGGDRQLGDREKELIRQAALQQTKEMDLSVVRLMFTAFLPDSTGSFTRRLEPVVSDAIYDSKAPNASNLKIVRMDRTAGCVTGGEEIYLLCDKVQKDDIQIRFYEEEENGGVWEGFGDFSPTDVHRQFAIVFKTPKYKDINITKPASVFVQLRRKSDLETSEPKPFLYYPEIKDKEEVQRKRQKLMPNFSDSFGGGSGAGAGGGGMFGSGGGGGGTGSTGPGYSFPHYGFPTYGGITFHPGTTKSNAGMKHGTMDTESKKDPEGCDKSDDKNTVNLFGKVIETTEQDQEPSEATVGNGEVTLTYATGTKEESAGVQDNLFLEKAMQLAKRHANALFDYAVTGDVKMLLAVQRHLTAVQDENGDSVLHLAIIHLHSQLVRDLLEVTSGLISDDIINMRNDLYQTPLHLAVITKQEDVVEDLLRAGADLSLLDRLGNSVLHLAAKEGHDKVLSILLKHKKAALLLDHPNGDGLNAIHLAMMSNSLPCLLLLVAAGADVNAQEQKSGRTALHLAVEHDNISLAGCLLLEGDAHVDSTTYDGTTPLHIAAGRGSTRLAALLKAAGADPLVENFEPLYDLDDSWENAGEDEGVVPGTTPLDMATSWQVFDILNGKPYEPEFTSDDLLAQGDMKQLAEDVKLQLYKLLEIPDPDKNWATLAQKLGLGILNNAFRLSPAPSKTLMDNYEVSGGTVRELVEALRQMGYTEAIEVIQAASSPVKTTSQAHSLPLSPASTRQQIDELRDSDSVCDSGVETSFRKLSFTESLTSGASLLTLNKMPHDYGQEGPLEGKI
Nature of the experiment: FRET or BRET. As to conditions: partners not purified.

In experiment [5] the target is T2, TPL2, Nluc- or YFP-tagged (BRET) (human, UniProt P41279-1 1-467).
T2 construct: also called MAP3K8
Nature of the experiment: FRET or BRET. The settings on record: partners not purified.

For experiment [6], the target named is TPL2, Glu1- or Glu2-tagged (PCA) (human, UniProt P41279-1 1-467). Nature of the experiment: split reporter (BiFC, NanoBiT). The settings on record: partners not purified.

Values joined by “and” are separate entries in the source; they are usually repeats but may differ in a detail not shown here. Equal values may be shown once.

Chain of RelAp43, Nluc- or YFP-tagged (BRET) (Q04206 whole entry): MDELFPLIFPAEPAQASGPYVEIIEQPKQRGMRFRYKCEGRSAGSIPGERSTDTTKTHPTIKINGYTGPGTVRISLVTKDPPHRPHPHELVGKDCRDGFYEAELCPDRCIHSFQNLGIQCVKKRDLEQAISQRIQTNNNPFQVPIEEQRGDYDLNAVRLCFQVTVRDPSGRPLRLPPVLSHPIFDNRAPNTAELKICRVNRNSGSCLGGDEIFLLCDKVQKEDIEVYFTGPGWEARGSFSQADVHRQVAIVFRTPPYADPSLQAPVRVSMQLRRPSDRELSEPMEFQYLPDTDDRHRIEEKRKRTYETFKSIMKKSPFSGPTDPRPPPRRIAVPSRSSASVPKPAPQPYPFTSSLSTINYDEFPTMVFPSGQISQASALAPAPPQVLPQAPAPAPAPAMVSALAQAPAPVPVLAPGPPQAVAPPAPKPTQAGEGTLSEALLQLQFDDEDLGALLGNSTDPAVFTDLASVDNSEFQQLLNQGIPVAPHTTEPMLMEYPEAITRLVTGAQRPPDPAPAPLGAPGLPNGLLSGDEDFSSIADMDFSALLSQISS
T2 sequence (P41279 whole entry): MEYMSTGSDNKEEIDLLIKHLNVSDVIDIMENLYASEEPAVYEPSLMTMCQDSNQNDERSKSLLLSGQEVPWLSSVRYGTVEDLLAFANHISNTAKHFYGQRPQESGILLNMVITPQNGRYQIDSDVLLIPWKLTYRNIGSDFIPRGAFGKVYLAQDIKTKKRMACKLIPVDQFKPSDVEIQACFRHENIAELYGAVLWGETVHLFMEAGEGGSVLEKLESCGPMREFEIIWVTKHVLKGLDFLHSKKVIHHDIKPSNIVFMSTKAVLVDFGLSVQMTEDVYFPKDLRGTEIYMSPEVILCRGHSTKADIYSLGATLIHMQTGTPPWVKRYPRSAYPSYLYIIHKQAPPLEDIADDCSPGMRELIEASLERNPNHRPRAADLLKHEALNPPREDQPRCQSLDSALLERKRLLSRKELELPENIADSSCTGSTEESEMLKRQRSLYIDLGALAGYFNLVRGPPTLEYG
Chain of TPL2, Glu1- or Glu2-tagged (PCA) (P41279 whole entry): as above
Chain of TPL2, Nluc- or YFP-tagged (BRET) (human) (P41279 whole entry): as above

With “MSAD, YFP-tagged (BRET) (from UniProt P16287 1-202) (natural protein)”, in experiment [1], the netBRET was 0.022 and 0.063.
In the case of “MTha, YFP-tagged (BRET) (natural protein)”, the netBRET in experiment [2] is 0.022 to 0.109; in experiment [3], more than 0.05.
For the molecule “p50, Nluc- or YFP-tagged (BRET) (domain or fragment)”, the netBRET in experiment [2] is more than 0.05.
Take “p105, Nluc- or YFP-tagged (BRET) (from UniProt P19838 1-968) (natural protein)”: in experiment [2], the netBRET was more than 0.05.

B1: ABIN2, Nluc- or YFP-tagged (BRET) (natural protein, human, UniProt Q8NFZ5-1 1-429, looked up)
chain: MSRDPGSGGWEEAPRAAAALCTLYHEAGQRLRRLQDQLAARDALIARLRARLAALEGDAAPSLVDALLEQVARFREQLRRQEGGAAEAQMRQEIERLTERLEEKEREMQQLLSQPQHEREKEVVLLRRSMAEGERARAASDVLCRSLANETHQLRRTLTATAHMCQHLAKCLDERQHAQRNVGERSPDQSEHTDGHTSVQSVIEKLQEENRLLKQKVTHVEDLNAKWQRYNASRDEYVRGLHAQLRGLQIPHEPELMRKEISRLNRQLEEKINDCAEVKQELAASRTARDAALERVQMLEQQILAYKDDFMSERADRERAQSRIQELEEKVASLLHQVSWRQDSREPDAGRIHAGSKTAKYLAADALELMVPGGWRPGTGSQQPEPPAEGGHPGAAQRGQGDLQCPHCLQCFSDEQGEELLRHVAECCQ
notes: also called TNIP2
B1: the netBRET in experiment [4] was less than 0.05; in experiment [5] it was 0.093.

B2: ABIN2, Glu1- or Glu2-tagged (PCA) (natural protein, human, UniProt Q8NFZ5-1 1-429, looked up)
chain: MSRDPGSGGWEEAPRAAAALCTLYHEAGQRLRRLQDQLAARDALIARLRARLAALEGDAAPSLVDALLEQVARFREQLRRQEGGAAEAQMRQEIERLTERLEEKEREMQQLLSQPQHEREKEVVLLRRSMAEGERARAASDVLCRSLANETHQLRRTLTATAHMCQHLAKCLDERQHAQRNVGERSPDQSEHTDGHTSVQSVIEKLQEENRLLKQKVTHVEDLNAKWQRYNASRDEYVRGLHAQLRGLQIPHEPELMRKEISRLNRQLEEKINDCAEVKQELAASRTARDAALERVQMLEQQILAYKDDFMSERADRERAQSRIQELEEKVASLLHQVSWRQDSREPDAGRIHAGSKTAKYLAADALELMVPGGWRPGTGSQQPEPPAEGGHPGAAQRGQGDLQCPHCLQCFSDEQGEELLRHVAECCQ
Take B2: the other in experiment [6] came out at 0.86.

B3: MSAD, YFP-tagged (BRET) (natural protein)
chain: MNLLRKIVKNRRDEDTQKSSPASAPLDDDDLWLPPPEYVPLKELTGKKNMRNFCINGRVKVCSPNGYSFRILRHILKSFDEIYSGNHRMIGLVKVVIGLALSGSPVPEGLNWVYKLRRTFIFQWADSRGPLEGEELEYSQEITWDDDTEFVGLQIRVIAKQCHIQGRVWCINMNPRACQLWSDMSLQTQRSEEDKDSSLLLE
For the molecule B3, the netBRET in experiment [5] was more than 0.05.
